Molecular target: T1, peptide containing GA-pyridine (Biotin-Gly-Ala-Gly-(GA-pyridine)-Gly-Ala-CONH2)
T1 chain: GAGXGA
Test: SPR (Biacore T200), peptide immobilised on sensor chip SA, 25 C

Kd: 16.1 nM
B1: cyclic Y9-scFv cyclized by sortase (scFv)
scFv: GGGSHMAQVKLQQSGPSLVKPSQTLSLTCSVTGDSITSGYWNWIRKFPGNKFEYLGYISYSGRTYYNPSLKSRISITRDTSKNQYYLQLNSVTTEDTATYYCSRPYYRYDYAIDYWGQGTTVTVSSGGGGSGGGGSGGGGSDIELTQSPAIMSASLGEQVTMTCTASSSVSSSYLHWYQQKPGSSPKLWIYSTSNLASGVPARFSSSGSGTSYSLTISRMEAEDAATYYCQQSWKAPYTFGGGTKLEIKRAAAGTHHHHHHLPET
modifications: not checked

Source: patent US20210388112A1
